From patent publication US20180335429 come the findings set out here.

The series deals with T1, MMP substrate, 5-FAM-GGPLGVRGKK(CPQ2)-PEG2-C, presented on the iron-oxide nanoparticle (ABN) surface (not fully specified).
T1 chain: GGPLGVRGKKC

B1: mouse MMP9 (protein)
chain: APYQRQPTFVVFPKDLKTSNLTDTQLAEAYLYRYGYTRAAQMMGEKQSLRPALLMLQKQLSLPQTGELDSQTLKAIRTPRCGVPDVGRFQTFKGLKWDHHNITYWIQNYSEDLPRDMIDDAFARAFAVWGEVAPLTFTRVYGPEADIVIQFGVAEHGDGYPFDGKDGLLAHAFPPGAGVQGDAHFDDDELWSLGKGVVIPTYYGNSNGAPCHFPFTFEGRSYSACTTDGRNDGTPWCSTTADYDKDGKFGFCPSERLYTEHGNGEGKPCVFPFIFEGRSYSACTTKGRSDGYRWCATTANYDQDKLYGFCPTRVDATVVGGNSAGELCVFPFVFLGKQYSSCTSDGRRDGRLWCATTSNFDTDKKWGFCPDQGYSLFLVAAHEFGHALGLDHSSVPEALMYPLYSYLEGFPLNKDDIDGIQYLYGRGSKPDPRPPATTTTEPQPTAPPTMCPTIPPTAYPTVGPTVGPTGAPSPGPTSSPSPGPTGAPSPGPTAPPTAGSSEASTESLSPADNPCNVDVFDAIAEIQGALHFFKDGWYWKFLNHRGSPLQGPFLTARTWPALPATLDSAFEDPQTKRVFFFSGRQMWVYTGKTVLGPRSLDKLGLGPEVTHVSGLLPRRLGKALLFSKGRVWRFDLKSQKVDPQSVIRVDKEFSGVPWNSHDIFQYQDKAYFCHGKFFWRVSFQNEVNKVDHEVNQVDDVGYVTYDLLQCP
Consider B1, for which the “cleavage of the substrate” value is given as “it was confirmed that mouse MMP9 cleaves the ABN MMP9 substrate”.
